Experimental findings from the supplement of paper PMC12338614 are described below.

± gives the uncertainty stated by the source.

B1: library; numbered along this chain (parent)
chain: MEVVDPQQLGMFTEGELMSVGMDTFIHRIDSTEVIYQPRRKRAKLIGKYLMGDLLGEGSYGKVKEVLDSETLCRRAVKILKKKKLRRIPNGEANVKKEIQLLRRLRHKNVIQLVDVLYNEEKQKMYMVMEYCVCGMQEMLDSVPEKRFPVCQAHGYFCQLIDGLEYLHSQGIVHKDIKPGNLLLTTGGTLKISDLGVAEALHPFAADDTCRTSQGSPAFQPPEIANGLDTFSGFKVDIWSAGVTLYNITTGLYPFEGDNIYKLFENIGKGSYAIPGDCGPPLSDLLKGMLEYEPAKRFSIRQIRQHSWFRKKHPPAEAPVPIPPSPDTKDRWRSMTVVPYLEDLHGADEDEDLFDIEDDIIYTQDFTVPGQVPEEEASHNGQRRGLPKAVCMNGTEAAQLSTKSRAEGRAPNPARKACSASSKIRRLSACKQQ

In the data set the parent is B1. As to the kind of experiment: STK11 functional score (HeLa growth suppression), rescaled enrichment; synonymous median = 1, nonsense median = 0 (normalised score). To be noted: with HeLa; variant type: missense. In outline:
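In HeLa, Bxb1 integrated POPCode codon-randomised libraries of codon-optimised STK11 at an AAVS1 landing pad; three regions were each transfected three times. Integrants, marked as BFP-negative and mCherry-positive, were FACS-sorted 4–5 days after electroporation and expanded for about two weeks before tiled gDNA amplicons were sequenced on NextSeq (~2 million reads per tile). Each functional score is a post/pre-selection log ratio corrected to wild type, rescaled to the synonymous and nonsense medians, and merged across codons and replicate transfections, with error estimated by bootstrapping.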
For the variant MEVVDPQQLGMFTEGELMSVGMDTFIHRIDSTEVIYQPRRKRAKLIGKYLMGDLLGEGSYGKVKEVLDSETLCRRAVKILKKKKLRRIPNGEANVKKEIQLLRRLRHKNVIQLVDVLYNEEKQKMYMVMEYCVCGMQEMLDSVPEKRFPVCQAHGYFCQLIDGLEYLHSQGIVHKDIKPGNLLLTTGGTLKISDLGVAEALHPFAADDTCRTSQGSPAFQPPEIANGLDTFSGFKVDIWSAGVTLYNITTGLYPFEGDNIYKLFENIGKGSYAIPGDCGPPLSDLLKGMLEYEPAKRFSIRQIRQHSWFRKKHPPAEAPVPIPPSPDTKDRWRSMTVVPYLEDLHGADEDEDLFDIEDDIIYTQDFTVPGQVPEEEASHNGQRRGLPKAVCMNGTEAAQLSKKSRAEGRAPNPARKACSASSKIRRLSACKQQ [T402K], the STK11 functional score is 1.3 ± 0.1. MEVVDPQQLGMFTEGELMSVGMDTFIHRIDSTEVIYQPRRKRAKLIGKYLMGDLLGEGSYGKVKEVLDSETLCRRAVKILKKKKLRRIPNGEANVKKEIQLLRRLRHKNVIQLVDVLYNEEKQKMYMVMEYCVCGMQEMLDSVPEKRFPVCQAHGYFCQLIDGLEYLHSQGIVHKDIKPGNLLLTTGGTLKISDLGVAEALHPFAADDTCRTSQGSPAFQPPEIANGLDTFSGFKVDIWSAGVTLYNITTGLYPFEGDNIYKLFENIGKGSYAIPGDCGPPLSDLLKGMLEYEPAKRFSIRQIRQHSWFRKKHPPAEAPVPIPPSPDTKDRWRSMTVVPYLEDLHGADEDEDLFDIEDDIIYTQDFTVPGQVPEEEASHNGQRRGLPKAVCMNGTEAAQLSSKSRAEGRAPNPARKACSASSKIRRLSACKQQ [T402S]: the STK11 functional score was 1.31 ± 0.18. For the variant MEVVDPQQLGMFTEGELMSVGMDTFIHRIDSTEVIYQPRRKRAKLIGKYLMGDLLGEGSYGKVKEVLDSETLCRRAVKILKKKKLRRIPNGEANVKKEIQLLRRLRHKNVIQLVDVLYNEEKQKMYMVMEYCVCGMQEMLDSVPEKRFPVCQAHGYFCQLIDGLEYLHSQGIVHKDIKPGNLLLTTGGTLKISDLGVAEALHPFAADDTCRTSQGSPAFQPPEIANGLDTFSGFKVDIWSAGVTLYNITTGLYPFEGDNIYKLFENIGKGSYAIPGDCGPPLSDLLKGMLEYEPAKRFSIRQIRQHSWFRKKHPPAEAPVPIPPSPDTKDRWRSMTVVPYLEDLHGADEDEDLFDIEDDIIYTQDFTVPGQVPEEEASHNGQRRGLPKAVCMNGTEAAQLSIKSRAEGRAPNPARKACSASSKIRRLSACKQQ [T402I], the STK11 functional score turned out to be 1.25 ± 0.2. Then MEVVDPQQLGMFTEGELMSVGMDTFIHRIDSTEVIYQPRRKRAKLIGKYLMGDLLGEGSYGKVKEVLDSETLCRRAVKILKKKKLRRIPNGEANVKKEIQLLRRLRHKNVIQLVDVLYNEEKQKMYMVMEYCVCGMQEMLDSVPEKRFPVCQAHGYFCQLIDGLEYLHSQGIVHKDIKPGNLLLTTGGTLKISDLGVAEALHPFAADDTCRTSQGSPAFQPPEIANGLDTFSGFKVDIWSAGVTLYNITTGLYPFEGDNIYKLFENIGKGSYAIPGDCGPPLSDLLKGMLEYEPAKRFSIRQIRQHSWFRKKHPPAEAPVPIPPSPDTKDRWRSMTVVPYLEDLHGADEDEDLFDIEDDIIYTQDFTVPGQVPEEEASHNGQRRGLPKAVCMNGTEAAQLSHKSRAEGRAPNPARKACSASSKIRRLSACKQQ [T402H], with 0.157 ± 0.63; and MEVVDPQQLGMFTEGELMSVGMDTFIHRIDSTEVIYQPRRKRAKLIGKYLMGDLLGEGSYGKVKEVLDSETLCRRAVKILKKKKLRRIPNGEANVKKEIQLLRRLRHKNVIQLVDVLYNEEKQKMYMVMEYCVCGMQEMLDSVPEKRFPVCQAHGYFCQLIDGLEYLHSQGIVHKDIKPGNLLLTTGGTLKISDLGVAEALHPFAADDTCRTSQGSPAFQPPEIANGLDTFSGFKVDIWSAGVTLYNITTGLYPFEGDNIYKLFENIGKGSYAIPGDCGPPLSDLLKGMLEYEPAKRFSIRQIRQHSWFRKKHPPAEAPVPIPPSPDTKDRWRSMTVVPYLEDLHGADEDEDLFDIEDDIIYTQDFTVPGQVPEEEASHNGQRRGLPKAVCMNGTEAAQLSPKSRAEGRAPNPARKACSASSKIRRLSACKQQ [T402P], with 1.54 ± 0.46; and MEVVDPQQLGMFTEGELMSVGMDTFIHRIDSTEVIYQPRRKRAKLIGKYLMGDLLGEGSYGKVKEVLDSETLCRRAVKILKKKKLRRIPNGEANVKKEIQLLRRLRHKNVIQLVDVLYNEEKQKMYMVMEYCVCGMQEMLDSVPEKRFPVCQAHGYFCQLIDGLEYLHSQGIVHKDIKPGNLLLTTGGTLKISDLGVAEALHPFAADDTCRTSQGSPAFQPPEIANGLDTFSGFKVDIWSAGVTLYNITTGLYPFEGDNIYKLFENIGKGSYAIPGDCGPPLSDLLKGMLEYEPAKRFSIRQIRQHSWFRKKHPPAEAPVPIPPSPDTKDRWRSMTVVPYLEDLHGADEDEDLFDIEDDIIYTQDFTVPGQVPEEEASHNGQRRGLPKAVCMNGTEAAQLSGKSRAEGRAPNPARKACSASSKIRRLSACKQQ [T402G], with 1.13 ± 0.21.

Consider MEVVDPQQLGMFTEGELMSVGMDTFIHRIDSTEVIYQPRRKRAKLIGKYLMGDLLGEGSYGKVKEVLDSETLCRRAVKILKKKKLRRIPNGEANVKKEIQLLRRLRHKNVIQLVDVLYNEEKQKMYMVMEYCVCGMQEMLDSVPEKRFPVCQAHGYFCQLIDGLEYLHSQGIVHKDIKPGNLLLTTGGTLKISDLGVAEALHPFAADDTCRTSQGSPAFQPPEIANGLDTFSGFKVDIWSAGVTLYNITTGLYPFEGDNIYKLFENIGKGSYAIPGDCGPPLSDLLKGMLEYEPAKRFSIRQIRQHSWFRKKHPPAEAPVPIPPSPDTKDRWRSMTVVPYLEDLHGADEDEDLFDIEDDIIYTQDFTVPGQVPEEEASHNGQRRGLPKAVCMNGTEAAQLSEKSRAEGRAPNPARKACSASSKIRRLSACKQQ [T402E], for which the STK11 functional score was 1.59 ± 0.24. For MEVVDPQQLGMFTEGELMSVGMDTFIHRIDSTEVIYQPRRKRAKLIGKYLMGDLLGEGSYGKVKEVLDSETLCRRAVKILKKKKLRRIPNGEANVKKEIQLLRRLRHKNVIQLVDVLYNEEKQKMYMVMEYCVCGMQEMLDSVPEKRFPVCQAHGYFCQLIDGLEYLHSQGIVHKDIKPGNLLLTTGGTLKISDLGVAEALHPFAADDTCRTSQGSPAFQPPEIANGLDTFSGFKVDIWSAGVTLYNITTGLYPFEGDNIYKLFENIGKGSYAIPGDCGPPLSDLLKGMLEYEPAKRFSIRQIRQHSWFRKKHPPAEAPVPIPPSPDTKDRWRSMTVVPYLEDLHGADEDEDLFDIEDDIIYTQDFTVPGQVPEEEASHNGQRRGLPKAVCMNGTEAAQLSCKSRAEGRAPNPARKACSASSKIRRLSACKQQ [T402C], the STK11 functional score came to 1.33 ± 0.4. MEVVDPQQLGMFTEGELMSVGMDTFIHRIDSTEVIYQPRRKRAKLIGKYLMGDLLGEGSYGKVKEVLDSETLCRRAVKILKKKKLRRIPNGEANVKKEIQLLRRLRHKNVIQLVDVLYNEEKQKMYMVMEYCVCGMQEMLDSVPEKRFPVCQAHGYFCQLIDGLEYLHSQGIVHKDIKPGNLLLTTGGTLKISDLGVAEALHPFAADDTCRTSQGSPAFQPPEIANGLDTFSGFKVDIWSAGVTLYNITTGLYPFEGDNIYKLFENIGKGSYAIPGDCGPPLSDLLKGMLEYEPAKRFSIRQIRQHSWFRKKHPPAEAPVPIPPSPDTKDRWRSMTVVPYLEDLHGADEDEDLFDIEDDIIYTQDFTVPGQVPEEEASHNGQRRGLPKAVCMNGTEAAQLSDKSRAEGRAPNPARKACSASSKIRRLSACKQQ [T402D]: the STK11 functional score was determined as 1.21 ± 0.39. Consider MEVVDPQQLGMFTEGELMSVGMDTFIHRIDSTEVIYQPRRKRAKLIGKYLMGDLLGEGSYGKVKEVLDSETLCRRAVKILKKKKLRRIPNGEANVKKEIQLLRRLRHKNVIQLVDVLYNEEKQKMYMVMEYCVCGMQEMLDSVPEKRFPVCQAHGYFCQLIDGLEYLHSQGIVHKDIKPGNLLLTTGGTLKISDLGVAEALHPFAADDTCRTSQGSPAFQPPEIANGLDTFSGFKVDIWSAGVTLYNITTGLYPFEGDNIYKLFENIGKGSYAIPGDCGPPLSDLLKGMLEYEPAKRFSIRQIRQHSWFRKKHPPAEAPVPIPPSPDTKDRWRSMTVVPYLEDLHGADEDEDLFDIEDDIIYTQDFTVPGQVPEEEASHNGQRRGLPKAVCMNGTEAAQLSLKSRAEGRAPNPARKACSASSKIRRLSACKQQ [T402L], for which the STK11 functional score turned out to be 1.23 ± 0.27. With MEVVDPQQLGMFTEGELMSVGMDTFIHRIDSTEVIYQPRRKRAKLIGKYLMGDLLGEGSYGKVKEVLDSETLCRRAVKILKKKKLRRIPNGEANVKKEIQLLRRLRHKNVIQLVDVLYNEEKQKMYMVMEYCVCGMQEMLDSVPEKRFPVCQAHGYFCQLIDGLEYLHSQGIVHKDIKPGNLLLTTGGTLKISDLGVAEALHPFAADDTCRTSQGSPAFQPPEIANGLDTFSGFKVDIWSAGVTLYNITTGLYPFEGDNIYKLFENIGKGSYAIPGDCGPPLSDLLKGMLEYEPAKRFSIRQIRQHSWFRKKHPPAEAPVPIPPSPDTKDRWRSMTVVPYLEDLHGADEDEDLFDIEDDIIYTQDFTVPGQVPEEEASHNGQRRGLPKAVCMNGTEAAQLSVKSRAEGRAPNPARKACSASSKIRRLSACKQQ [T402V], the STK11 functional score worked out at 0.686 ± 0.18. Regarding MEVVDPQQLGMFTEGELMSVGMDTFIHRIDSTEVIYQPRRKRAKLIGKYLMGDLLGEGSYGKVKEVLDSETLCRRAVKILKKKKLRRIPNGEANVKKEIQLLRRLRHKNVIQLVDVLYNEEKQKMYMVMEYCVCGMQEMLDSVPEKRFPVCQAHGYFCQLIDGLEYLHSQGIVHKDIKPGNLLLTTGGTLKISDLGVAEALHPFAADDTCRTSQGSPAFQPPEIANGLDTFSGFKVDIWSAGVTLYNITTGLYPFEGDNIYKLFENIGKGSYAIPGDCGPPLSDLLKGMLEYEPAKRFSIRQIRQHSWFRKKHPPAEAPVPIPPSPDTKDRWRSMTVVPYLEDLHGADEDEDLFDIEDDIIYTQDFTVPGQVPEEEASHNGQRRGLPKAVCMNGTEAAQLSNKSRAEGRAPNPARKACSASSKIRRLSACKQQ [T402N], the STK11 functional score is 0.935 ± 0.33. For MEVVDPQQLGMFTEGELMSVGMDTFIHRIDSTEVIYQPRRKRAKLIGKYLMGDLLGEGSYGKVKEVLDSETLCRRAVKILKKKKLRRIPNGEANVKKEIQLLRRLRHKNVIQLVDVLYNEEKQKMYMVMEYCVCGMQEMLDSVPEKRFPVCQAHGYFCQLIDGLEYLHSQGIVHKDIKPGNLLLTTGGTLKISDLGVAEALHPFAADDTCRTSQGSPAFQPPEIANGLDTFSGFKVDIWSAGVTLYNITTGLYPFEGDNIYKLFENIGKGSYAIPGDCGPPLSDLLKGMLEYEPAKRFSIRQIRQHSWFRKKHPPAEAPVPIPPSPDTKDRWRSMTVVPYLEDLHGADEDEDLFDIEDDIIYTQDFTVPGQVPEEEASHNGQRRGLPKAVCMNGTEAAQLSFKSRAEGRAPNPARKACSASSKIRRLSACKQQ [T402F], the STK11 functional score was 1.18 ± 0.12. Turning to MEVVDPQQLGMFTEGELMSVGMDTFIHRIDSTEVIYQPRRKRAKLIGKYLMGDLLGEGSYGKVKEVLDSETLCRRAVKILKKKKLRRIPNGEANVKKEIQLLRRLRHKNVIQLVDVLYNEEKQKMYMVMEYCVCGMQEMLDSVPEKRFPVCQAHGYFCQLIDGLEYLHSQGIVHKDIKPGNLLLTTGGTLKISDLGVAEALHPFAADDTCRTSQGSPAFQPPEIANGLDTFSGFKVDIWSAGVTLYNITTGLYPFEGDNIYKLFENIGKGSYAIPGDCGPPLSDLLKGMLEYEPAKRFSIRQIRQHSWFRKKHPPAEAPVPIPPSPDTKDRWRSMTVVPYLEDLHGADEDEDLFDIEDDIIYTQDFTVPGQVPEEEASHNGQRRGLPKAVCMNGTEAAQLSMKSRAEGRAPNPARKACSASSKIRRLSACKQQ [T402M], the STK11 functional score worked out at 1.23 ± 0.11.
